Reference: the RNAGym collection of RNA variant scans (doi:10.7554/elife.80360)

B1: Twister Ribozyme (parent)
chain: AACACUGCCAAUGCCGGUCCCAAGCCCGGAUAAAAGUGGAGGGGGCGG

Variants of: B1
Assay: self-cleavage, relative activity (ratio to wild type); higher = more cleavage; co-transcriptional

Row | Variant | self-cleavage
1 | C3A A30G | 0.202
2 | C3A A30C | 0.225
3 | C3A C20G | 0.0637
4 | C3A C20A | 0.0829
5 | C3G A33U | 0.526
6 | A2U G17A | 0.131
7 | C3G G24U | 0.0918
8 | C3G G24A | 0.0502
9 | C3A G42U | 0.0908
10 | C3A C14G | 0.0567
11 | A2U U6G | 0.0884
12 | A2U U6A | 0.185
13 | A2U C25A | 0.0735
14 | A2U C25U | 0.169
15 | A2U C25G | 0.0728
16 | C3G C25A | 0.0782
17 | A2U U18A | 0.0781
18 | A2U U18G | 0.0917
19 | C3A U6G | 0.121
20 | C3A U6C | 0.0414
21 | A2U G28U | 0.519
22 | C3A G43A | 0.0599
23 | C3G G39A | 0.0984
24 | C3G G39C | 0.0914

Row | Variant | self-cleavage
25 | C3G G39U | 0.107
26 | C3A G48C | 0.251
27 | A2U U31A | 0.605
28 | A2U U31G | 0.626
29 | C3G G17A | 0.213
30 | C3G C27A | 0.0737
31 | C3A A4U | 0.0689
32 | C3A A4C | 0.0653
33 | A2U G36C | 0.129
34 | C3A G41C | 0.07
35 | C3A A10C | 0.308
36 | A2U U12G | 0.557
37 | A2U U12A | 0.667
38 | C3A G39A | 0.0266
39 | C3A G39U | 0.0737
40 | A2U G43A | 0.128
41 | C3G C26G | 0.0704
42 | C3G G43C | 0.101
43 | C3G G43U | 0.124
44 | C3G G43A | 0.12
45 | C3A A40C | 0.0582
46 | C3A G13U | 0.127
47 | C3A G13A | 0.207
48 | C3G A22C | 0.481

Row | Variant | self-cleavage
49 | C3G A22G | 0.124
50 | C3A C46A | 0.2
51 | C3A C46U | 0.244
52 | C3A C46G | 0.117
53 | C3G A30C | 0.167
54 | A2U C26A | 0.131
55 | C3A G28U | 0.144
56 | C3A G28A | 0.183
57 | C3A C15G | 0.0656
58 | C3A C15U | 0.108
59 | C3A C15A | 0.101
60 | A2U G41U | 0.157
61 | C3A G38C | 0.297
62 | A2U U37A | 0.202
63 | C3A G45C | 0.0823
64 | C3A G45U | 0.152
65 | C3A U12G | 0.159
66 | C3A U12A | 0.0973
67 | A2U G39C | 0.18
68 | A2U G39U | 0.188
69 | C3G A4C | 0.114
70 | C3G A4U | 0.13
71 | C3G A4G | 0.462
72 | C3A A35U | 0.16

Row | Variant | self-cleavage
73 | C3A A35C | 0.315
74 | C3G C21U | 0.0445
75 | C3G C21G | 0.0504
76 | A2U G38A | 0.789
77 | A2U G38U | 0.184
78 | A2U G38C | 0.252
79 | C3G G13A | 0.138
80 | C3G G13C | 0.124
81 | C3G C9G | 0.139
82 | C3G C9A | 0.0934
83 | A2U C21G | 0.0765
84 | A2U C21A | 0.0621
85 | A2U C21U | 0.0725
86 | C3A C27A | 0.148
87 | C3A C27U | 0.183
88 | C3A A22C | 0.115
89 | C3A A22G | 0.0923
90 | C3A C9U | 0.0898
91 | C3G A35U | 0.488
92 | C3G A35G | 0.317
93 | A2U C46G | 0.53
94 | C3G A11U | 0.762
95 | C3A G47A | 0.245
96 | C3A G47U | 0.229

Row | Variant | self-cleavage
97 | C3G G7A | 0.0769
98 | C3G G7C | 0.0501
99 | C3G C5G | 0.101
100 | C3G C5U | 0.309
101 | C3G C5A | 0.117
102 | A2U G45U | 0.344
103 | C3A C26U | 0.132
104 | C3G C20A | 0.0892
105 | C3A C21A | 0.0913
106 | C3G G29A | 0.348
107 | C3A G17U | 0.0649
108 | C3A G17C | 0.0654
109 | C3A G16U | 0.141
110 | A2U C20G | 0.0669
111 | C3A A11U | 0.212
112 | C3A A11C | 0.153
113 | C3G C19A | 0.0808
114 | C3G C8A | 0.174
115 | C3G A10G | 0.872
116 | C3A U18C | 0.0738
117 | C3A U18A | 0.0528
118 | C3A U18G | 0.0709
119 | C3G A32U | 0.593
120 | C3G A32C | 0.379

Row | Variant | self-cleavage
121 | A2U G47A | 0.292
122 | C3G G41U | 0.142
123 | C3A A32C | 0.188
124 | C3A A32U | 0.278
125 | C3A A32G | 0.0493
126 | C3A G7C | 0.0682
127 | A2U G42C | 0.134
128 | A2U G42U | 0.172
129 | A2U G42A | 0.164
130 | C3A A23C | 0.0997
131 | C3A C25A | 0.0581
132 | C3A C25G | 0.12
133 | A2U G16A | 0.256
134 | C3G C14U | 0.47
135 | C3G C14A | 0.418
136 | C3G C14G | 0.0805
137 | C3A A33G | 0.0867
138 | C3G A40U | 0.113
139 | C3G A40C | 0.12
140 | A2U G48C | 0.67
141 | A2U G48A | 0.353
142 | C3G G36C | 0.0943
143 | C3G G38A | 0.559
144 | C3G G38U | 0.607

Row | Variant | self-cleavage
145 | C3G G38C | 0.449
146 | C3A C5A | 0.0993
147 | C3A C5G | 0.265
148 | C3A C5U | 0.159
149 | A2U G24A | 0.112
150 | A2U G24C | 0.109
151 | C3G C46G | 0.568
152 | C3G C46A | 0.624
153 | C3G C46U | 0.583
154 | A2U G7C | 0.0748
155 | C3A G24C | 0.0654
156 | C3A G44C | 0.207
157 | C3A G44U | 0.253
158 | C3A G29C | 0.184
159 | C3A C19G | 0.0471
160 | A2U G29A | 0.474
161 | A2U G29U | 0.484
162 | C3A U37G | 0.17
163 | C3A A34U | 0.252
164 | C3A A34G | 0.1
165 | A2U C27U | 0.357
166 | A2U C27G | 0.126
167 | A2U C27A | 0.124
